Earlier results on one substance are cited in PMC7692841.

In general, Kd refers to the concentration at which binding is half-saturated.

For data set [1], the target named is BRCA1-A complex (Homo sapiens) (UniProt Q6UWZ7).
In data set [2] the target is ABRAXAS phosphopeptide (Homo sapiens) (UniProt Q6UWZ7). Put plainly: ITC. In general terms: Isothermal titration calorimetry measures the heat released or taken up as one component is titrated into another.
In data set [3] the target is ATRIP phosphopeptide (Homo sapiens) (UniProt Q8WXE1). Put plainly: ITC.
For data set [4], the target named is BACH1 phosphopeptide (Homo sapiens) (UniProt Q9BX63). Put plainly: ITC.
Chain of BACH1 phosphopeptide (Homo sapiens) (Q9BX63 whole entry): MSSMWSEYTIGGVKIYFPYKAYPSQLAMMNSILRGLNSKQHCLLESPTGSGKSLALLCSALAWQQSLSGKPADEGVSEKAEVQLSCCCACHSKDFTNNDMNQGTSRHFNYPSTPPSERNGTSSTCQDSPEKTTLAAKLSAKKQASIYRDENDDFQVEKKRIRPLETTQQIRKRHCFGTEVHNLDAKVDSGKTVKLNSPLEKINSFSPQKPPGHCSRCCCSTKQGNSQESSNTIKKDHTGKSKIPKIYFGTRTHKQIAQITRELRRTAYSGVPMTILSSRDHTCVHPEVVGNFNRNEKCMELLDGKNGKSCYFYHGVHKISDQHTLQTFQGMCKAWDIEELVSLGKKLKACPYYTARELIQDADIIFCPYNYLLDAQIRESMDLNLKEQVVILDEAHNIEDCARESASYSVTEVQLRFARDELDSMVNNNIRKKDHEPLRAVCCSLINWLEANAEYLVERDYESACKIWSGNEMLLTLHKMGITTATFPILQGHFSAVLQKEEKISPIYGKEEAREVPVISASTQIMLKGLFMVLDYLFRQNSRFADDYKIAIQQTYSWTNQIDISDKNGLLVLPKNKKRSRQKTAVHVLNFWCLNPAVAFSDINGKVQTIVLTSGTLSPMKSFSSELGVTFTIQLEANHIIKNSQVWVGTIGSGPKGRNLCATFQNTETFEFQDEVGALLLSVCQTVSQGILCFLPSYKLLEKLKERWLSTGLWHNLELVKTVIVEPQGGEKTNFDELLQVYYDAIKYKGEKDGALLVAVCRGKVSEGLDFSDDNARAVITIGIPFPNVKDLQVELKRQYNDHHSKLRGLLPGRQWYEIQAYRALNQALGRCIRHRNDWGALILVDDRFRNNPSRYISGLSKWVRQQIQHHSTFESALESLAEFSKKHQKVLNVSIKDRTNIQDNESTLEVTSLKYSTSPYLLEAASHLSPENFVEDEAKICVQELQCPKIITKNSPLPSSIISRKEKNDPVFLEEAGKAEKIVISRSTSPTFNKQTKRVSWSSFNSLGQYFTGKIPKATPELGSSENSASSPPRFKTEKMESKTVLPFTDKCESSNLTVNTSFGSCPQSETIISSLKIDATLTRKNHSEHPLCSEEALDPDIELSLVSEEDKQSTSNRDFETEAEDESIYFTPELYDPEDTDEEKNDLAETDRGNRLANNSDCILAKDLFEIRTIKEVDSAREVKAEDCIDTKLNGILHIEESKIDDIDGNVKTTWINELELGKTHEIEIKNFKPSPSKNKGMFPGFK

Chain of BRCA1 BRCT (P38398 1646-1859): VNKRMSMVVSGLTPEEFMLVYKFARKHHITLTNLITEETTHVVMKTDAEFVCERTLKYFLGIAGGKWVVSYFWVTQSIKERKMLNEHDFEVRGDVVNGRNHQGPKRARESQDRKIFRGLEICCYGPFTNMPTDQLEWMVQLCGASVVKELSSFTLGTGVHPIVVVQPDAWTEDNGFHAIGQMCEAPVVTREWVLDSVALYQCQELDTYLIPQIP
Chain of ABRAXAS phosphopeptide (Homo sapiens) (Q6UWZ7 whole entry): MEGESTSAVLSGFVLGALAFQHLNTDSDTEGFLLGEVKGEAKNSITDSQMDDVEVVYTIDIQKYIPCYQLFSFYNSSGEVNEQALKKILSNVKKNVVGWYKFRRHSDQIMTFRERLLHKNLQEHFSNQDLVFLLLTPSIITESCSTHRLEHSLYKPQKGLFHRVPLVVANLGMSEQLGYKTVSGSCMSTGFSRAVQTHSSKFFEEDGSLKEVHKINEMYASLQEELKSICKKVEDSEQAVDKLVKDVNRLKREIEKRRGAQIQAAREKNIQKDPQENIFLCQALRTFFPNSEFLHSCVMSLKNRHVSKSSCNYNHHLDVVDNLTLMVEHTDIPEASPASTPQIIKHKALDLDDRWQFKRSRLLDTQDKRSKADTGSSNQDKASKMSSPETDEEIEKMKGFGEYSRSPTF
Chain of ATRIP phosphopeptide (Homo sapiens) (Q8WXE1 whole entry): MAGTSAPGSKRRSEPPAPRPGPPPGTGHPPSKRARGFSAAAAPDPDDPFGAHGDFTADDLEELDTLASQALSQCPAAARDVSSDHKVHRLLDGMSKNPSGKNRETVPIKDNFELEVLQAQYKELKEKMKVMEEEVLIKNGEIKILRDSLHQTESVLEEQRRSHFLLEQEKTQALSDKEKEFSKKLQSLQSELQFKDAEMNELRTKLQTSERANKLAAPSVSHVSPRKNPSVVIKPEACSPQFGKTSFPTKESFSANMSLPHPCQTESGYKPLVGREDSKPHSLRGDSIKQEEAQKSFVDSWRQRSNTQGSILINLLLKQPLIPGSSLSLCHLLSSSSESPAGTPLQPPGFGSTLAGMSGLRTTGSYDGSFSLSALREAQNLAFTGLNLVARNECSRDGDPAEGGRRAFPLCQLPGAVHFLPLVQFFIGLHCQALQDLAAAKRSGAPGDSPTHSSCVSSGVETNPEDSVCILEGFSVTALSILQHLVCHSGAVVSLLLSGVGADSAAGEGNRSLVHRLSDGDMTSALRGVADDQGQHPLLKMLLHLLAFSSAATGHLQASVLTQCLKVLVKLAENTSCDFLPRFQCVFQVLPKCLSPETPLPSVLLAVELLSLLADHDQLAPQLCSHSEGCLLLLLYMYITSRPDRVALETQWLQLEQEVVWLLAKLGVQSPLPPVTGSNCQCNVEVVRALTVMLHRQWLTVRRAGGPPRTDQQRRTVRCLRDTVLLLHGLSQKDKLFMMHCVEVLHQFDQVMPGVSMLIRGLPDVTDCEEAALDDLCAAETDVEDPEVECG

As for BRCA1 BRCT (from UniProt P38398), the Kd was 0.08 µM in data set [1], 1.2 µM in data set [2], 28.2 µM in data set [3] and 0.7 µM in data set [4].
